Laboratory results: US20220177587A1, “METHODS AND USES OF VARIANT CD80 FUSION PROTEINS AND RELATED CONSTRUCTS” (Alpine Immune Sciences, Inc., priority 2018, published 2022)

Columns and labels:
huCTLA4 = huCTLA4 (Homo sapiens, UniProt P16410); test: Flow binding to HEK293 cells transfected with CTLA4; design: Full-length mammalian surface expression constructs for each of human CTLA-4, PD-L1, and CD28; host or cells: HEK293 cells, Expi293F transient transfection system; conditions: Table E1
Method: Full-length mammalian surface expression constructs for each of human CTLA-4, PD-L1, and CD28, were designed in pcDNA3.1 expression vector (Life Technologies) and sourced from Genscript, USA. Binding studies were carried out on transfected HEK293 cells generated to express the full-length mammalian surface ligands using the using the Expi293F transient transfection system (Life Technologies, USA). As a control, binding to mock (non-transfected) cells also was assessed. […] For each CTLA-4, PD-L1, CD-28 or mock 30 mL transfection, 75 million Expi293F cells were incubated with 30 μg expression construct DNA and 1.5 mL diluted ExpiFectamine 293 reagent for 48 hours, at which point cells were harvested for staining.
For staining and analysis by flow cytometry, 100,000 cells of appropriate transient transfection or negative control (mock) were plated in 96-well round bottom plates. Cells were spun down and resuspended in staining buffer (PBS (phosphate buffered saline), 1% BSA (bovine serum albumin), and 0.1% sodium azide) for 20 minutes to block non-specific binding. […] Secondary antibody was washed out twice, cells were fixed in 4% formaldehyde/PBS, and samples were analyzed on Intellicyt flow cytometer (Intellicyt Corp, USA). Mean Fluorescence Intensity (MFI) was calculated for each transfectant and mock transfected HEK293 with FlowJo Version 10 software (FlowJo LLC, USA).

CD28 [1] = target: T1, CD28 (Homo sapiens, UniProt P10747); test: Jurkat/IL2 + CHO/OKT3 +/- PD-L1 reporter assay: PD-L1-dependent CD28 costimulation; type: cell-based; design: host or cells: Jurkat cells expressing an IL-2-luciferase reporter; conditions: luciferase signal
Method: Jurkat cells were then plated at 50 μL/well for a total of 100,000 cells per well.
To each well, 25 μL of test protein was added to the Jurkat cells. […] The Jurkat cells with test or control proteins were incubated for 15 minutes at room temperature. CHO-derived artificial antigen presenting cells (aAPC) displaying transduced cell surface anti-CD3 single chain Fv (OKT3) (i.e., no PD-L1), or OKT3 and PD-L1 (i.e., +PD-L1), were brought to 0.8×10^6 cells/mL, and 25 μL of cells were added to each well, bringing the final volume of each well to 100 μL. […] Jurkat cells and CHO cells were incubated for 5 hours at 37 degrees Celsius in a humidified 5% CO2 incubation chamber. Plates were then removed from the incubator and acclimated to room temperature for 15 minutes. 100 μL of a cell lysis and luciferase substrate solution (BioGlo luciferase reagent, Promega) were added to each well and the plates were incubated on an orbital shaker for 10 minutes. Luminescence was measured with a 1 second per well integration time using a BioTek Cytation luminometer, and a relative luminescence value (RLU) was determined for each test sample.

CD28 [2] = target: T1, CD28; test: CD28 costimulation via Fc receptor or PD-L1 dependent cross-linking (Jurkat/IL2 + K562/OKT3 +/- PD-L1); type: cell-based; design: host or cells: Jurkat cells expressing an IL-2-luciferase reporter; conditions: luciferase signal
Method: In a further experiment, CD28 costimulation was assessed for variant CD80-IgV-Fc fusion proteins, where the Fc was an IgG1 Fc (e.g. SEQ ID NO:1517) capable of mediating effector activity via binding to Fc receptors (FcR). The experiment was carried out as described in part A above, except CD32-expressing K562 cells stably transduced with OKT3 (K562/OKT3) or OKT3 and PD-L1 (K562/OKT3/PD-L1) were used instead of the CHO/OKT3 and CHO/OKT3/PD-L1 cells, and the results are depicted in Table E9.

CD28 [3] = target: T1, CD28; test: Flow binding to HEK293 cells transfected with CD28; design: Full-length mammalian surface expression constructs for each of human CTLA-4, PD-L1, and CD28; host or cells: HEK293 cells, Expi293F transient transfection system; conditions: Table E1
Method: This Example describes Fc-fusion binding studies of purified proteins from the above Examples to cell-expressed CTLA-4, PD-L1, and CD28 counter structures to assess the specificity and affinity of CD80 domain variant immunomodulatory proteins. Full-length mammalian surface expression constructs for each of human CTLA-4, PD-L1, and CD28, were designed in pcDNA3.1 expression vector (Life Technologies) and sourced from Genscript, USA. Binding studies were carried out on transfected HEK293 cells generated to express the full-length mammalian surface ligands using the using the Expi293F transient transfection system (Life Technologies, USA). As a control, binding to mock (non-transfected) cells also was assessed. […]
For staining and analysis by flow cytometry, 100,000 cells of appropriate transient transfection or negative control (mock) were plated in 96-well round bottom plates. […] As controls, the binding activities of wild-type CD80-ECD-Fc (R&D Systems), wild-type CD80-ECD-Fc (inert), wild-type IgV-Fc (inert) and/or human IgG (Sigma) were also assessed. […] Secondary antibody was washed out twice, cells were fixed in 4% formaldehyde/PBS, and samples were analyzed on Intellicyt flow cytometer (Intellicyt Corp, USA). Mean Fluorescence Intensity (MFI) was calculated for each transfectant and mock transfected HEK293 with FlowJo Version 10 software (FlowJo LLC, USA). […]

allogeneic CD4+ T cells = test: Mixed Lymphocyte Reaction (MLR), IFN-gamma; type: cell-based, human; conditions: Table E32; variant ECD-Fc in MLR assay; culture supernatant
Method: Soluble rCD80.Fc bioactivity was tested in a human Mixed Lymphocyte Reaction (MLR). Human primary dendritic cells (DC) were generated by culturing monocytes isolated from PBMC (BenTech Bio, USA) in vitro for 7 days with 500U/ml rIL-4 (R&D Systems, USA) and 250 U/ml rGM-CSF (R&D Systems, USA) in Ex-Vivo 15 media (Lonza, Switzerland). 10,000 matured DC and 100,000 purified allogeneic CD4+ T cells (BenTech Bio, USA) were co-cultured with variant CD80 Fc fusion proteins and controls in 96 well round bottom plates in 200 μl final volume of Ex-Vivo 15 media. On day 5, IFN-gamma secretion in culture supernatants was analyzed using the Human IFN-gamma Duoset ELISA kit (R&D Systems, USA). Optical density was measured by VMax ELISA Microplate Reader (Molecular Devices, USA) and quantitated against titrated rIFN-gamma standard included in the IFN-gamma Duo-set kit (R&D Systems, USA).

human pan T cells = test: Anti-CD3 coimmobilization assay, IFN-gamma; type: cell-based; conditions: Table E32; variant ECD-Fc coimmobilized with anti-CD3; culture supernatant
Method: Costimulatory bioactivity of CD80 fusion variants was determined in anti-CD3 coimmobilization assays. 1 nM or 4 nM mouse anti-human CD3 (OKT3, Biolegends, USA) was diluted in PBS with 1 nM to 80 nM rCD80.Fc variant proteins. This mixture was added to tissue culture treated flat bottom 96-well plates (Corning, USA) overnight to facilitate adherence of the stimulatory proteins to the wells of the plate. The next day, unbound protein was washed off the plates and 100,000 purified human pan T cells (BenTech Bio, US) or human T cell clone BC3 (Astarte Biologics, USA) were added to each well in a final volume of 200 μl of Ex-Vivo 15 media (Lonza, Switzerland). Cells were cultured 3 days before harvesting culture supernatants and measuring human IFN-gamma levels with Duoset ELISA kit (R&D Systems, USA) as described above.

huPD-L1 = huPD-L1 (Homo sapiens, UniProt Q9NZQ7); test: Flow binding to Expi293F cells transfected with PD-L1 (ECD variants); design: Full-length mammalian surface expression constructs for each of human CTLA-4, PD-L1, and CD28; host or cells: HEK293 cells, Expi293F transient transfection system; conditions: Table E32; variant CD80 ECD-Fc selected against CD28
huPD-L1, sequence (Q9NZQ7 19-290): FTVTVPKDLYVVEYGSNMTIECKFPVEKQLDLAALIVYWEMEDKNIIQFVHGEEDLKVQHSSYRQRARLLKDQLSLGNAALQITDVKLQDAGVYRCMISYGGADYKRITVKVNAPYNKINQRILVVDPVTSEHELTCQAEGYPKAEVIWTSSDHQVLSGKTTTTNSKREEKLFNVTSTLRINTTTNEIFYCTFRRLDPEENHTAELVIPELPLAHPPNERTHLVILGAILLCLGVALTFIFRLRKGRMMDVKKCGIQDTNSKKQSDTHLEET
Method: To produce cells expressing cognate binding partners, full-length mammalian surface expression constructs for each of human CD28, CTLA-4 and PD-L1, were designed in pcDNA3.1 expression vector (Life Technologies) and sourced from Genscript, USA. Binding studies were carried out using the Expi293F transient transfection system (Life Technologies, USA). […] For each CD28, CTLA-4, PD-L1, or mock 30 ml transfection, 75 million Expi293F cells were incubated with 30 μg expression construct DNA and 1.5 ml diluted ExpiFectamine 293 reagent for 48 hours, at which point cells were harvested for staining.
For staining by flow cytometry, 200,000 cells of appropriate transient transfection or negative control were plated in 96-well round bottom plates. Cells were spun down and resuspended in staining buffer (PBS (phosphate buffered saline), 1% BSA (bovine serum albumin), and 0.1% sodium azide) for 20 minutes to block non-specific binding. […] Secondary antibody was washed out twice, cells were fixed in 4% formaldehyde/PBS, and samples were analyzed on FACScan flow cytometer (Becton Dickinson, USA).
Mean Fluorescence Intensity (MFI) was calculated for each transfectant and negative parental line with Cell Quest Pro software (Becton Dickinson, USA).

huCTLA4, sequence (P16410 36-223): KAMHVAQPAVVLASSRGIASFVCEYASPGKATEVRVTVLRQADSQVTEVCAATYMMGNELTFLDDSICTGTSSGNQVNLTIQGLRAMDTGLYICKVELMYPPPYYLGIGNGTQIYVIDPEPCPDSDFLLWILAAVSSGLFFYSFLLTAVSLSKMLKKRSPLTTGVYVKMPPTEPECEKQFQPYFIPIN

| Substance | CTLA4 MFI at 66.6 nM (huCTLA4) | PD-L1-Dependent CD28 Costimulation, +PD-L1, 0.6 nM (CD28 [1]; CHO/OKT3/PD-L1 aAPC, 0.6 nM) | PD-L1-Dependent CD28 Costimulation, +PD-L1, 50 nM (CD28 [1]; CHO/OKT3/PD-L1 aAPC, 50 nM) | PD-L1-Dependent CD28 Costimulation, No PD-L1, 50 nM (CD28 [1]; CHO/OKT3 aAPC, no PD-L1, 50 nM) | PD-L1-Dependent CD28 Costimulation, No PD-L1, […] (CD28 [1]; CHO/OKT3 aAPC, no PD-L1, […]) | CD28 costimulation, Combination of FcR and/or PD-L1 Dependent Cross-Linking, 0.6 nM (CD28 [2]; K562/0KT3/PD-L1 aAPC, 0.6 nM) | CD28 costimulation, Combination of FcR and/or PD-L1 Dependent Cross-Linking, 50 nM (CD28 [2]; K562/0KT3/PD-L1 aAPC, 50 nM) | CD28 costimulation, FcR Dependent Cross-Linking (No PD-L1), 0.6 nM (CD28 [2]; K562/0KT3 aAPC, 0.6 nM) | CD28 costimulation, FcR Dependent Cross-Linking (No PD-L1), 50 nM (CD28 [2]; K562/0KT3 aAPC, 50 nM) | CD28 costimulation, FcR Dependent Cross-Linking (No PD-L1), […] (CD28 [2]; K562/0KT3 aAPC, […]) | CD28 MFI at 66.6 nM (CD28 [3]) | MLR IFN-gamma levels (allogeneic CD4+ T cells) [pg/mL] | Coimmobilization with anti CD3 IFN-gamma (human pan T cells) [pg/mL] | Binding PD-L1 MFI (huPD-L1) |
| --- | --- | --- | --- | --- | --- | --- | --- | --- | --- | --- | --- | --- | --- | --- |
| Fc only: negative control Fc alone [reference compound] | 5962 | 501 | 440 | 395 | 419 | 689 | 679 | 1404 | 1373 | 1390 | 2592 |  |  |  |
| WT CD80 |  |  |  |  |  |  |  |  |  |  |  | 866 | 83 | 70 |
